Paper PMC8424595 (The Journal of Biological Chemistry, 2021)
Substitutions are numbered along the chain they refer to. Where no end group is shown, it is not given here. fluorescein = fluorescein label at the N-terminus

Experiments:
Ssa1 = Ssa1 (Saccharomyces cerevisiae, UniProt P10591); test: fluorescence polarization, displacement of ATP-FAM; type: binding; conditions: 50 uM ATP, 1 uM Ssa1, 20 nM ATP-FAM, pH 7.5, 25 °C
Msi3 = molecular target: T1, Msi3 (Candida albicans, UniProt Q96VB9); test: limited trypsin digest; type: binding; conditions: 1 mM ATP, pH 7.5, 10 mM Mg(OAc)2, 25 °C
T1 sequence (Q96VB9 1-701): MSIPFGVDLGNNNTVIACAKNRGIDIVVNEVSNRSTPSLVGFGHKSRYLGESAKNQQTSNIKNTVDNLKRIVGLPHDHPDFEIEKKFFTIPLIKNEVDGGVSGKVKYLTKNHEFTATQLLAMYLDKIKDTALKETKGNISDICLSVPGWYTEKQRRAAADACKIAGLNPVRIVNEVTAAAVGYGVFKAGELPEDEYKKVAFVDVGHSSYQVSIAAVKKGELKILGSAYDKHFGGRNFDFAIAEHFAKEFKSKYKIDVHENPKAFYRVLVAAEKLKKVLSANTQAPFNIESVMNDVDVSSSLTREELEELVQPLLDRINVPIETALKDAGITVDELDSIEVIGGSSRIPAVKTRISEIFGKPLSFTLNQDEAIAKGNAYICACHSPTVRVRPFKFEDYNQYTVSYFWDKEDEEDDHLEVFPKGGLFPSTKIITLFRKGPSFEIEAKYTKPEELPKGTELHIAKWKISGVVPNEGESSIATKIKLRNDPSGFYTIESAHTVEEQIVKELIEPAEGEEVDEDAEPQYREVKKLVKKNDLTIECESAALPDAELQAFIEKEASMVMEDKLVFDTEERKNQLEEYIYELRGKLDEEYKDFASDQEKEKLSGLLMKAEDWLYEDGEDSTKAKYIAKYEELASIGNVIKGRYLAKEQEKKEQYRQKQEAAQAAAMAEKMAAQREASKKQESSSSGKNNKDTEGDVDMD

Msi3 I164D = molecular target: T2, Msi3 I164D (Candida albicans, UniProt Q96VB9 1-701, I164D); test: fluorescence polarisation
T2 sequence (looked up): T1 sequence (Q96VB9 1-701) with I164D

Msi3 R235E = molecular target: T3, Msi3 R235E (Candida albicans, UniProt Q96VB9 1-701, R235E); test: fluorescence polarisation
T3 sequence (looked up): T1 sequence (Q96VB9 1-701) with R235E

[1] = molecular target: T4, Msi3, the sole Hsp110 in Candida albicans, wild type (Candida albicans, UniProt Q96VB9 1-701); test: fluorescence polarisation
T4 sequence (looked up): T1 sequence (Q96VB9 1-701)

[2] = molecular target: Ssa1, the major Hsp70 in the cytosol of S. cerevisiae (S. cerevisiae, UniProt P10591 1-642); test: native gel or EMSA
Ssa1, the major Hsp70 in the cytosol of S. cerevisiae, sequence (P10591 whole entry): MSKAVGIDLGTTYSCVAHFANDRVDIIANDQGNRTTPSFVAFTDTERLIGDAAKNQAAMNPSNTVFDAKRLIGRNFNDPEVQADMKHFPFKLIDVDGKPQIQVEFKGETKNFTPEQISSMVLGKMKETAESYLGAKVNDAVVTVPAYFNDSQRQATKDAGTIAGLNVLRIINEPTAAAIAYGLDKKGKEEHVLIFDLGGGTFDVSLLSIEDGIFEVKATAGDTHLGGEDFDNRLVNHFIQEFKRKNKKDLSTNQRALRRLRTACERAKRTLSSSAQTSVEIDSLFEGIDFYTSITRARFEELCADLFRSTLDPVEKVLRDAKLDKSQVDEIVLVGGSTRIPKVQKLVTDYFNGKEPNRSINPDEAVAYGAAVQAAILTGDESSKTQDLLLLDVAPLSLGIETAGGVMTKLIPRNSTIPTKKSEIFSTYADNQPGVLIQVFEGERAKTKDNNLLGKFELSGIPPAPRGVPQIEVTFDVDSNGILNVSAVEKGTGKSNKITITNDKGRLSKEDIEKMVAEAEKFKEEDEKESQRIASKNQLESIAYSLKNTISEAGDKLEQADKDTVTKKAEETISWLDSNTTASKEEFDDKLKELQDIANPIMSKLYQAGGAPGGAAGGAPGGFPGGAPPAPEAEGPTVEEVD

Msi3-Ssa1 complex = Msi3-Ssa1 complex (Candida albicans | S. cerevisiae, UniProt Q96VB9 1-701; P10591 1-642); test: native gel or EMSA
Msi3-Ssa1 complex, sequence (P10591 whole entry, one chain of several): as the sequence (P10591 whole entry) above

Ssa1, sequence (P10591 2-642): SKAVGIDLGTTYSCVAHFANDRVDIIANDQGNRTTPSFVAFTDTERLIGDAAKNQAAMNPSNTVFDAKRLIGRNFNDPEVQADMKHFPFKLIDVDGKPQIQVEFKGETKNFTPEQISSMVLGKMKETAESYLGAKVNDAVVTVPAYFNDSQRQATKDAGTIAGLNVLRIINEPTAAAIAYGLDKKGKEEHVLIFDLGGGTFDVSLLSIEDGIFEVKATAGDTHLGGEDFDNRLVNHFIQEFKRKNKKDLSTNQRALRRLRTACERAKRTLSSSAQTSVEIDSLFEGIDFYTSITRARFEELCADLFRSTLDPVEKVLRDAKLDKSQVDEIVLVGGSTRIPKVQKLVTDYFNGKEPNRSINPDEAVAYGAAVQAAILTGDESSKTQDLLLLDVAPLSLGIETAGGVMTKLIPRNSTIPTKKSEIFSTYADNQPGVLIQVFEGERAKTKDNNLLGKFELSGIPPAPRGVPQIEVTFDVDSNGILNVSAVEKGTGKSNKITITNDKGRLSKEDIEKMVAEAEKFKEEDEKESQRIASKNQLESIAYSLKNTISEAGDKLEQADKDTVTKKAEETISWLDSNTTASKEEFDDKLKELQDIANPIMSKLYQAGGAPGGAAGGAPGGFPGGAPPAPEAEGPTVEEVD

With Nc1ncnc2c1ncn2[C@@H]1O[C@H](COP(=O)(O)OP(=O)(O)OP(=O)(O)O)[C@@H](O)[C@H]1O [ATP] the “fluorescence polarization, displacement of ATP-FAM” value (Ssa1) was “the bound ATP-FAM was slowly replaced by the unlabeled ATP” and the “limited trypsin digest (ATP-induced conformational change)” value (Msi3) was “two signature proteolytic bands were observed in the presence of ATP for the WT Msi3”.

fluorescein-VYDFFVWLHYY [TRP2_181 peptide]: binds (Msi3 I164D); binds (Msi3 R235E); binds [1].

fluorescein-NRLLLTG [NR peptide]: binds [2]; binds (Msi3-Ssa1 complex).
